In test [1] the target is TSG-101 (C. elegans, endogenous) (C. elegans (endogenous in embryos)). In words: SEC + other: sucrose density gradient sedimentation; C. elegans embryo extracts desalted into 50 mM Na phosphate pH 7.0, 250 mM NaCl, 1 mM EDTA, 1 mM beta-mercaptoethanol; Superose 6 and 5-20% sucrose gradient; fractions blotted for TSG-101 and MVB-12.
Test [2] addresses T1, TSG-101:6xHIS (recombinant C. elegans TSG-101) (C. elegans, UniProt O76258 1-425).
T1 construct: open reading frame amplified from N2 cDNA; source: E. coli BL21 (DE3), co-expressed from a polycistronic vector, purified (Ni-NTA, Superose 6); not shown: 6xHis, C-terminal, kept
T1 sequence (looked up): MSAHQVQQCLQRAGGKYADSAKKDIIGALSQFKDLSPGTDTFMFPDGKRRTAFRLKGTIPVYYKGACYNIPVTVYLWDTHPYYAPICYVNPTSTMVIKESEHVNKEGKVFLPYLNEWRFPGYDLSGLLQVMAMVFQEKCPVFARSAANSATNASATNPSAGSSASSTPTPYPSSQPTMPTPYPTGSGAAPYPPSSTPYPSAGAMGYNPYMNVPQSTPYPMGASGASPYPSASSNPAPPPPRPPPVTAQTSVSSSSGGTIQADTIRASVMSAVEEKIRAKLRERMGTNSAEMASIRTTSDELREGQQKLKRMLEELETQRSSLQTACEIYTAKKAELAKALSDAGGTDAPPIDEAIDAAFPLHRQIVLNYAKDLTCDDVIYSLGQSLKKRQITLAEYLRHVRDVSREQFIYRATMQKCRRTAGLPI
The test is described as follows: SEC + other: sucrose density gradient sedimentation; TSG-101:6xHIS, VPS-28 and VPS-37 co-expressed in E. coli, purified on nickel resin; Superose 6 in 50 mM Na phosphate pH 7.0, 250 mM NaCl, 1 mM EDTA, 1 mM beta-mercaptoethanol; 5-20% sucrose gradient; Stokes radius and S-value combined to a native molecular weight. Conditions: both partners purified.

Test [3] concerns the target T1, TSG-101:6xHIS (recombinant C. elegans …). In words: SEC + other: sucrose density gradient sedimentation; TSG-101:6xHIS, VPS-28, VPS-37 and MVB-12 co-expressed in E. coli, purified on nickel resin; Superose 6 in 50 mM Na phosphate pH 7.0, 250 mM NaCl, 1 mM EDTA, 1 mM beta-mercaptoethanol; 5-20% sucrose gradient; Stokes radius and S-value combined to a native molecular weight. As to conditions: both partners purified.

Broadly, the stoichiometry N is a count of units in the complex or per binding partner. Consider “MVB-12 (C. elegans, endogenous) (from UniProt Q17687 1-277) (natural protein)”, for which the stoichiometry N in test [1] was 1.

B1: VPS-37 (recombinant C. elegans) (natural protein, UniProt O44158 1-234, looked up)
chain: MFSQNPYESHVDVAVSAASANLRNMTNEQLISLLDDDALLESIIVNLPQVRSMPTDKESALAANKSLAEWNLAQKPRIDAAKTQTVDLYDQVKKLQGEVAVLKSQLDSVSSSKSLDTTSSLMQVAAQEADDDAEALFTQFENGEISVEIFLKQFKDKKTIAHLRKIKSDRLAALLREQTYSSYAQPTVPPPMPHAQPGYPTGNHMPGIGNIQFGSGYSGYPNISQPSAGRHPFF
notes: VPS-37 (CD4.4), C. elegans; open reading frame amplified from N2 cDNA
As for B1, the “stoichiometry N” value in test [2] was determined as 1.

B2: MVB-12 (recombinant C. elegans) (natural protein, UniProt Q17687 1-277, looked up)
chain: MTELEFSADNAAPVIPITAICIVADKNKAPRGFLPIIKCQDDQTEADLWRDGFFTINRQVRYICTSTEIPDSNIKTPVQVITNLIIVRESDPIPHGYVAIDYTADSREKSLRKKYVCIRTEPRDRVVDAIGEIIILGKTKKVPRDYTSAGDIDSLLICYKVISIPQTYGIQTSNSTSNIESQAAGGLYPGLPNLSNSTPANLDVTGSSSNSAFTMKNAGAPRVKAIDGIDFKVNPMFVNSSGSNNSSQLPDLSQFNDLDRLDDKYNYSYATEHAVLS
notes: MVB-12 (C06A6.3), C. elegans; open reading frame amplified from N2 cDNA; 277 amino acids as printed
As for B2, the “stoichiometry N” value in test [3] is 1.

B3: VPS-28 (recombinant C. elegans) (natural protein, UniProt Q9NA26 1-210, looked up)
chain: MSSQNANLMREVRLFENHSEREQMENLSELFAVLNALEHLEKMFSRDHVSADEYKSECFKLIDQYKVTMRLVHGATSIEDFAKKYRLHCPAAIERIREGRPITVKDDQGNVLKHIASIVEQFITFLDALRLNTRAVDDLYPGLDDLYNAINTTSRVPIDAIVTTKVKKWHDRLSSMAASDEISDEDARQMIFDVESAYQAFNKALNELKH
notes: VPS-28, C. elegans; open reading frame amplified from N2 cDNA
Turning to B3, the “stoichiometry N” value in test [2] worked out at 1.

The record behind these values is paper PMC1978536, “MVB-12, a Fourth Subunit of Metazoan ESCRT-I, Functions in Receptor Downregulation” (PLoS ONE, 2007).
